For orientation: Kd means the concentration at which binding is half-saturated. Lower therefore signals higher affinity.

The labels stand for the following.
T1: PUF4 RNA-binding domain (Saccharomyces cerevisiae, UniProt P25339 537-888)
T1 sequence: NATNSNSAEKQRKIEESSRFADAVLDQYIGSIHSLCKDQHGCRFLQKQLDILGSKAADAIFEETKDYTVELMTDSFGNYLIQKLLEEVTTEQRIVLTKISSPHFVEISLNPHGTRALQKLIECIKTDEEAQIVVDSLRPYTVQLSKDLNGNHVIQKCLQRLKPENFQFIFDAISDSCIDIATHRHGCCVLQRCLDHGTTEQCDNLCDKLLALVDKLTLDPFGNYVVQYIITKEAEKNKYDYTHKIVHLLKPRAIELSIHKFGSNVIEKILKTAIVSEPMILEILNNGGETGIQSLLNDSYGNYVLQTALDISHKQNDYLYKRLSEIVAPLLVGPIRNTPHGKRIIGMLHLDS

B1: Ia_S2_P5E.1_K5.1_C5.1_H5.1_A5.1_F5.1_[T8A]_T5.1 (ssRNA)
RNA: UUUGAUUAAUAUGAUAUCGUUCUUUCUUGUAUUAAUAUUCUUUCUCGAUAUCAUAUUAAUCUUU
B2: Ic_S2_P5E.1_K5.1_C5.1_H5.1_A5.1_[T6C]_F5.1_[T9A]_T5.1 (ssRNA)
RNA: B1 RNA with U33C, A35U, U36A
B3: Ia_S2_P5E.1_K5.1_C5.1_H5.1_A5.1_F5.1_[A10G]_T5.1 (ssRNA)
RNA: B1 RNA with A35U, A37G
B4: Ib_S2_P5E.1_K5.1_C5.1_H5.1_A5.1_[T6A]_F5.1_[A10G]_T5.1 (ssRNA)
RNA: B1 RNA with U33A, A35U, A37G
B5: Ib_S2_P5E.1_K5.1_C5.1_H5.1_A5.1_[T6A]_F5.1_[A10C]_T5.1 (ssRNA)
RNA: B1 RNA with U33A, A35U, A37C
B6: Ib_S2_P5E.1_K5.1_C5.1_H5.1_A5.1_[T5A]_F5.1_[A10T]_T5.1 (ssRNA)
RNA: B1 RNA with U32A, A35U, A37U
B7: Ib_S2_P5E.1_K5.1_C5.1_H5.1_A5.1_[T5A]_F5.1_[T9A]_T5.1 (ssRNA)
RNA: B1 RNA with U32A, A35U, U36A
B8: Ic_S2_P5E.1_K5.1_C5.1_H5.1_A5.1_[A7C]_F5.1_[T9A]_T5.1 (ssRNA)
RNA: B1 RNA with A34C, A35U, U36A
B9: Ib_S2_P5E.1_K5.1_C5.1_H5.1_A5.1_[T6A]_F5.1_[A10T]_T5.1 (ssRNA)
RNA: B1 RNA with U33A, A35U, A37U
B10: Ib_S2_P5E.1_K5.1_C5.1_H5.1_A5.1_[A7G]_F5.1_[T9A]_T5.1 (ssRNA)
RNA: B1 RNA with A34G, A35U, U36A
B11: Ib_S2_P5E.1_K5.1_C5.1_H5.1_A5.1_[T6C]_F5.1_[A10C]_T5.1 (ssRNA)
RNA: B1 RNA with U33C, A35U, A37C
B12: Ib_S2_P5E.1_K5.1_C5.1_H5.1_A5.1_[T5C]_F5.1_[A10T]_T5.1 (ssRNA)
RNA: B1 RNA with U32C, A35U, A37U
B13: Ib_S2_P5E.1_K5.1_C5.1_H5.1_A5.1_[A7T]_F5.1_[A10C]_T5.1 (ssRNA)
RNA: B1 RNA with A34U, A35U, A37C
B14: Ib_S2_P5E.1_K5.1_C5.1_H5.1_A5.1_[A7C]_F5.1_[A10C]_T5.1 (ssRNA)
RNA: B1 RNA with A34C, A35U, A37C
B15: Ib_S2_P5E.1_K5.1_C5.1_H5.1_A5.1_[A7T]_F5.1_[A10G]_T5.1 (ssRNA)
RNA: B1 RNA with A34U, A35U, A37G
B16: Ib_S2_P5E.1_K5.1_C5.1_H5.1_A5.1_[T5G]_F5.1_[A10G]_T5.1 (ssRNA)
RNA: B1 RNA with U32G, A35U, A37G
B17: Ib_S2_P5E.1_K5.1_C5.1_H5.1_A5.1_[T6A]_F5.1_[T9A]_T5.1 (ssRNA)
RNA: B1 RNA with U33A, A35U, U36A
B18: Ib_S2_P5E.1_K5.1_C5.1_H5.1_A5.1_[T6C]_F5.1_[A10T]_T5.1 (ssRNA)
RNA: B1 RNA with U33C, A35U, A37U
B19: Ib_S2_P5E.1_K5.1_C5.1_H5.1_A5.1_[T5C]_F5.1_[A10C]_T5.1 (ssRNA)
RNA: B1 RNA with U32C, A35U, A37C
B20: Ib_S2_P5E.1_K5.1_C5.1_H5.1_A5.1_[T5G]_F5.1_[A10C]_T5.1 (ssRNA)
RNA: B1 RNA with U32G, A35U, A37C
B21: Ic_S2_P5E.1_K5.1_C5.1_H5.1_A5.1_[T6A]_F5.1_[T9C]_T5.1 (ssRNA)
RNA: B1 RNA with U33A, A35U, U36C
B22: Ib_S2_P5E.1_K5.1_C5.1_H5.1_A5.1_[A7T]_F5.1_[T9A]_T5.1 (ssRNA)
RNA: B1 RNA with A34U, A35U, U36A

Where a chain is given by its changes, count along the chain named. Names may count otherwise.

The data set concerns the target T1, PUF4 RNA-binding domain. Description: Mg; RNA-MaP; 20 mM Na-HEPES pH 7.4, 30 mM KOAc, 0.75 mM MgCl2, 0.1% Tween-20, 5% glycerol, 0.1 mg/mL BSA, 2 mM DTT; 25 C; 0.0125-409.6 nM protein. The note with it: tags: N-His6-TEV cleaved; C-SNAP kept, Cy3B-labelled; label: tethered on chip by stalled RNA polymerase.
B1: the affinity, expressed as Kd, was 6.54 nM.

The molecule B2 registered a Kd of 0.834 nM. The molecule B3 came in with a Kd of 7.81 nM. The figure for B4 is 7.49 nM; for B5 it is 6.16 nM. Then B6, with 9.98 nM. The figure for B7 is 2.52 nM. In turn, B8 displayed a Kd of 2.31 nM. The figure for B9 is 6.98 nM; for B10 it is 10.6 nM. On to B11, for which the dissociation constant Kd turned out to be 6.38 nM. The molecule B12 returned a Kd of 3.1 nM. B13 had a Kd of 13 nM. Then B14, with 14.5 nM. In the case of B15, the Kd came out at 10.8 nM. Then B16, with 84.5 nM; and B17, with 1.12 nM; and B18, with 4.73 nM. Then B19, with 4.69 nM; and B20, with 61.5 nM. B21 returned a dissociation constant (Kd) of 34 nM. Then B22, with 2.01 nM; and UCUCUUUCUAUAUAUCUCUU (ssRNA) [Ia_S1_P3E.1_K3.1_C3.1_H3.1_[G2C]_A3.1_F3.1_T3.1], with above 2300 nM.

These data come from publication PMC9352680, “A comprehensive thermodynamic model for RNA binding by the Saccharomyces cerevisiae Pumilio protein PUF4”.
